Source: publication PMC12669672, “Structural insights into selective and dual antagonism of EP2 and EP4 prostaglandin receptors” (The EMBO Journal, 2025)
Several values for one entry are separate records, joined by “and”; a condition that tells them apart may be missing. Equal entries are not always repeated.

Legend:
[1] = system: WT and mutant EP2 receptors; test: Cell-surface expression, FACS with anti-FLAG FITC antibody; set-up: species or system human; conditions: single experiments 1st-3rd
Procedure: Cell-surface expression levels of both wild-type and mutant receptors were assessed using a fluorescence-activated cell sorting (FACS) assay. Briefly described, AD293 cells expressing FLAG-tagged EP2 or EP4 receptors were collected 24 h post-transfection. These cells were then incubated with a mouse anti-FLAG FITC-conjugated antibody (Sigma) at a 1:200 dilution for 2 h at 4 °C in a dark environment. Subsequently, cells were washed with 100 µL of PBS. Surface expression levels were quantified by measuring the fluorescence intensity of FITC using a Guava® easyCyte flow cytometer. Data were normalized relative to the expression levels of the wild-type receptors. These experiments were conducted in triplicate, and the results were expressed as mean ± S.E.M.

[2] = target: T1, EP2-D311A (Homo sapiens, UniProt P43116, D311A); test: GloSensor cAMP assay, PGE2 induced cAMP signaling (activation); type: cell-based
T1 construct: The full-length EP2 or EP4 was cloned into the pcDNA3.1 vector (Invitrogen), incorporating an N-terminal FLAG tag; expressed in transfected cells; host or cells: AD293
T1 sequence (P43116 whole entry D311A): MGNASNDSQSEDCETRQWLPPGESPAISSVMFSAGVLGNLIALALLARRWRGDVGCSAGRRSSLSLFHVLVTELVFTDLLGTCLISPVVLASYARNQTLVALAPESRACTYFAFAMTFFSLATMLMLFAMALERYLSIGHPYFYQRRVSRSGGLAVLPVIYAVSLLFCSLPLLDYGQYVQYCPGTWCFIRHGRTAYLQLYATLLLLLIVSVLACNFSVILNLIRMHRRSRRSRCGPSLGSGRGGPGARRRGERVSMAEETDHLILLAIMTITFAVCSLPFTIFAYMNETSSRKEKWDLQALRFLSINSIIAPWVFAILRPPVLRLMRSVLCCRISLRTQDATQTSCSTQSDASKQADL
Procedure: (§1) The full-length EP2 or EP4 was cloned into the pcDNA3.1 vector (Invitrogen), incorporating an N-terminal FLAG tag. AD293 cells were seeded in six-well plates containing DMEM supplemented with 10% dialyzed FBS 1 day prior to transfection. Following overnight growth, cells were transfected with a 1:1 ratio of receptor construct and GloSensor22F cAMP biosensor (Promega) plasmids.
(§2) Twenty-four hours post-transfection, the cells were transferred to CO2-independent media containing 2% GloSensor cAMP Reagent (Promega) and distributed into 384-well assay plates at a density of 4000 cells per well in 10 μL. […] The plates were then incubated at 37 °C for an additional hour before luminescence measurements were taken using an EnVision plate reader.
(§3) Data analysis was performed using GraphPad Prism software v8.0.1. A nonlinear regression analysis, employing a sigmoidal dose–response model, was conducted to determine the Emax values and half-maximum inhibitory concentrations (IC50) for each compound tested.

[3] = target: T2, EP2-F273A (Homo sapiens, UniProt P43116, F273A); test: as above; type: cell-based
T2 construct: The full-length EP2 or EP4 was cloned into the pcDNA3.1 vector (Invitrogen), incorporating an N-terminal FLAG tag; expressed in transfected cells; host or cells: AD293
T2 sequence (P43116 whole entry F273A): as the sequence (P43116 whole entry D311A) above, with F273A, A311D counted along it
Procedure: as §1, §2, §3

[4] = target: EP2 WT (Homo sapiens, UniProt P43116); test: as above; type: cell-based; set-up: The full-length EP2 or EP4 was cloned into the pcDNA3.1 vector (Invitrogen), incorporating an N-terminal FLAG tag; expressed in transfected cells; host or cells: AD293
Chain of EP2 WT (P43116 whole entry): as the sequence (P43116 whole entry D311A) above, with A311D counted along it
Procedure: as §1, §2, §3

[5] = 1 h, PGE2 log([M]) -7, single experiments 1st-3rd, Fig. 2D, read-out: % cAMP activity (normalized to WT)
[6] = single experiments 1st-3rd, Appendix Fig. S6A

| Compound | Surface expression ( 100% WT) [1] | further results |
| --- | --- | --- |
| EP2 S28A | 106.92% and 107.85% and 105.61% |  |
| EP2 S305A | 98.88% and 97.38% and 93.83% |  |
| EP2 W186A | 116.07% and 83.36% and 84.86% |  |
| CCCCC[C@H](O)/C=C/[C@H]1[C@H](O)CC(=O)[C@@H]1C/C=C\CCCC(=O)O [PGE2, Prostaglandin E2] |  | remaining activity at 0.1 µM [2, 5]: 91.9%; Emax ([2]; mean ± S.E.M., n = 3): 92.4 ± 3.9%; PGE2 cAMP activity (∆pIC50 from EP2 WT) [2, 6]: -1.566 and -1.416 and -1.487; remaining activity at 1 µM ([3]; 1 h, PGE2 log([M]) -6, single experiments 1st-3rd, Fig. 2D, read-out: % cAMP activity (normalized to WT)): 96.2%; remaining activity at 0.1 µM [3, 5]: 32.4%; Emax ([3]; mean ± S.E.M., n = 3): 117 ± 2.9%; remaining activity at 0.0001 µM ([4]; 1 h, PGE2 log([M]) -10, single experiments 1st-3rd, Fig. 2D, read-out: % cAMP activity (normalized to WT)): 16.5%; Emax ([4]; mean ± S.E.M., n = 3): 100 ± 3.9%; PGE2 cAMP activity (∆pIC50 from EP2 WT) [4, 6]: 0.007 and -0.051 and 0.045 |
| EP2 S308A | 115.51% and 112.90% and 88.41% |  |
| EP2 E23A | 92.71% and 100.19% and 95.51% |  |
| EP2 T82A | 106.36% and 116.26% and 103.74% |  |
| EP2 WT | 104.67% and 99.81% and 95.51% |  |
| EP2 S86A | 89.91% and 90.65% and 110.47% |  |
| EP2 M116A | 99.63% and 105.23% and 100.56% |  |
